In paper PMC10638775 one finds Kd data, which are given here for one sequence.

For this data set, the target named is FGFR1 on NIH3T3 cells (mouse (NIH3T3 fibroblasts)) (UniProt P16092). Description: flow cytometry. Conditions: SPR: Biacore T200, CM5 amine coupling, HBS running buffer (pH, salt, temperature not stated), flow cytometry: PBS, 1% BSA, 0.1% sodium azide, room temperature.
Sequence of FGFR1 on NIH3T3 cells (mouse (NIH3T3 fibroblasts)) (P16092 22-822): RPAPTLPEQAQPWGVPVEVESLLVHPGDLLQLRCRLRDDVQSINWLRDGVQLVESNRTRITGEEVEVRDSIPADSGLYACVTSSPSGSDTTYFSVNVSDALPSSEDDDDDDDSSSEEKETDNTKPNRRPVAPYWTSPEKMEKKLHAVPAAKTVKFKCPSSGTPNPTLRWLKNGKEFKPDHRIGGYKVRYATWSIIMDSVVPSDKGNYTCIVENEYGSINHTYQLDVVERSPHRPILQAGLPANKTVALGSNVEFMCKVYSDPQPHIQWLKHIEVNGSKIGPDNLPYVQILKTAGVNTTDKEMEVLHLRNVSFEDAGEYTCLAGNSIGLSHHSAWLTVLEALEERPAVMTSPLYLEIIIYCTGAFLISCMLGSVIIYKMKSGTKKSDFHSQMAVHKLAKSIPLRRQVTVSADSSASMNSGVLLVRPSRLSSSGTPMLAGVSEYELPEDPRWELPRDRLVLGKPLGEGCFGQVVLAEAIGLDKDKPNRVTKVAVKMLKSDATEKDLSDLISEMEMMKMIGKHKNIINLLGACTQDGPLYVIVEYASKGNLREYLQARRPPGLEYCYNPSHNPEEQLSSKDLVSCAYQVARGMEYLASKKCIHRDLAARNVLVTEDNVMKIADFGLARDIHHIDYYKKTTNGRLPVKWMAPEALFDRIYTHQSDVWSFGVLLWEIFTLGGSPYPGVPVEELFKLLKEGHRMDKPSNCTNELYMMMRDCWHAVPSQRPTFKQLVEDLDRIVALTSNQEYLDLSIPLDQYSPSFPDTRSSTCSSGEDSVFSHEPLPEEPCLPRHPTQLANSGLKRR

Usually Kd stands for the free concentration of one partner at which half of the binding sites on the other are occupied at equilibrium, for simple one-to-one binding. On to “GCCGCGTCTTTATGGCTGGGGATGGTGTGGGTTGCGGC [FAM-FGFR-binder]”, for which the Kd was determined as 39 nM.
